Experimental data: patent US20190338018A1

Target: DNABII protein tips
Experiment: cell-based or functional assay

| Binder | Reduction in Biomass (in vitro vs NTHI biofilms, 171 nM, COMSTAT2, relative to nonspecific murine IgG1) [%] | reduction in biomass of NTHI 86-028NP biofilm in vitro, relative to mAb IgG1 Fab control [%] |
| --- | --- | --- |
| mAb mIhfB4NTHI Fab (murine, clone 12E6.F8.D12.D5) (Fab, V domains shown) VH: EVQLQESGAELVRSGASVKLSCTASGFNIKDYYMHWVKQRPEQGLEWIGWIDPENDDTEYVPKFQGKASMTADTSSNTAYLQLSSLTSEDTAVYYCTELGAYWGQGTLV VL: not shown | 77 | 74 |
| mAb mIhfB4NTHI (murine monoclonal IgG, clone 12E6.F8.D12.D5) (antibody, V domains shown) VH: EVQLQESGAELVRSGASVKLSCTASGFNIKDYYMHWVKQRPEQGLEWIGWIDPENDDTEYVPKFQGKASMTADTSSNTAYLQLSSLTSEDTAVYYCTELGAYWGQGTLV VL: not shown | 71 |  |
